From US7183092B2, “Modified luciferase” (priority 2003, dated 2007)
Entries after “also recorded” stand apart in the source; their conditions may differ.

Assays:
[1] = Luciferase activity at different pHs; format: biochemical, Photinus pyralis
Experimental: 20 ng of enzyme was used for each reaction. The pH was maintained at 7.8 by 40 mM Tris-acetate buffer and 33 mM DTT was added to each reaction. Both substrates, MGATP and D-Luciferin were saturated at 1 mM and 500 μM respectively. The values were normalized against the highest RLU (relative light units) at each pH optimum for comparison purpose. CNBLuc03-06 luciferase (SEQ ID NO: 4) has optimum pH of 9, but the high enough activity is retained at lower pHs in which enables us to use this mutant luciferase in case a wide range of pH is required for the assay (between 8–11).

[2] = Specific activity of luciferase in the absence of DTT; format: biochemical, Photinus pyralis; details: 0 mM DTT, pH 7.8, 1 mM ATP, 500 μM D-Luciferin, three replicates
Experimental: Dithiothreitol (DTT) is an enzyme stabilizing agent used to reduce disulfide bonds (break the bonds) that are not normally formed under physiological conditions. Both purified wild type luciferase and CNBLuc03-06 luciferase (SEQ ID NO: 4) were diluted to 2 μg/ml in 40 mM Tris Acetate buffer at pH 7.8. The assay contained 40 mM Tris-Acetate at pH 7.8, 1 mM MgSO4, 0.1 mM EDTA, 500 μM D-Luciferin, 1 mM ATP, and 0 mM DTT. The light output was measured over time and three replicate measurements were made for each luciferase. The average value of the highest light output reading obtained over time was used to determine specific activity of each enzyme.

[3] = Luciferase activity in the presence of anionic detergent SDS; format: biochemical, Photinus pyralis; details: FIG. 5; 20 ng purified luciferase, 0% ethanol, 33 mM DTT
Experimental: (§1) The stability of CNBLuc03-06 luciferase (SEQ ID NO: 4), both in purified form and in cell lysates, in the presence of a range of potential inhibitors was assayed. The basic assay contained 40 mM Tris-Acetate at pH 7.8, 1 mM MgSO4, 0.1 mM EDTA (ethylenediaminetetraacetic acid), 500 μM D-Luciferin and 500 μM ATP. Ethanol, DTT (dithiothreitol) and potential inhibitors were included at the concentrations stated.
(§2) The stability of CNBLuc03-06 luciferase (SEQ ID NO: 4) in the presence of Triton X-100 and SDS was determined using 20 ng of purified luciferase per sample using the basic assay conditions and in the presence of 0% ethanol and 33 mM DTT. The effect of detergents on wild type luciferase was determined previously by W. J. Simpson and J. R. M. Hammond (W. J. Simpson and J. R. M. Hammond, (1991) Journal of Bioluminescence & Chemiluminescence, 6. 97–106, incorporated herein by reference). They reported the anionic detergents inhibit luciferase activity, and cationic detergents and nonionic detergents increase the reaction rate when the concentration of detergent exceeds critical micelle concentration (CMC) value but only up to certain concentrations.
SDS was used for testing the effect of anionic detergents.

[4] = Quantitative in vitro screening of mutant luciferases with chloroform; format: biochemical, Photinus pyralis; details: screening; 68.8 mM chloroform (0.8% vol.), 10% ethanol, 33 mM DTT, cell lysate supernatant
Experimental: Selected colonies from secondary screening were inoculated and grown in 5 ml LB broth containing 100 μg/ml ampicillin at 30° C. overnight. When the OD660 reached approximately 1, bacterial cells were harvested from 1.5 ml of culture by centrifugation for 3 min at 12,000 rpm (Eppendorf centrifuge model 5415D). Harvested cells were resuspended in 1 ml of 40 mM Tris-Acetate buffer, pH 7.8, and sonicated for 10 seconds using a Branson Sonifer 450, Duty cycle-40 and output control-4. The activity of each luciferase sample, prepared using 10 μl of supernatant from a subsequent centrifugation of sonicated bacterial cell culture, was tested in 200 μl total reaction volume by a Luminometer (Perkin Elmer, model Victor II). Each assay contained 40 mM Tris-Acetate, 1 mM MgSO4, 0.1 mM EDTA (ethylenediaminetetraacetic acid), 33 mM DTT (dithiothreitol), 500 μM D-Luciferin, 10% Ethanol and 500 μM ATP at pH 7.8. Some screening assays also contained 68.8 mM chloroform (0.8% vol.).
Different mutant luciferases were compared quantitatively by determining the percentage (%) inhibition of luciferase activity in the presence of chloroform relative to a control without chloroform. The specific activities of chloroform-tolerant mutants were generally lower as compared to wild type. […] The nucleotide sequence of CNBLuc03-02 is SEQ ID No: 1. The polypeptide sequence of the product of SEQ ID No: 1 is SEQ ID No: 2.

[5] = Luciferase activity in the presence of nonionic detergent Triton X-100; format: biochemical, Photinus pyralis; details: FIG. 4; Triton X-100 up to 5%, 20 ng purified luciferase, 0% ethanol, 33 mM DTT
Experimental: as §1, §2

[6] = Thermostability (storage stability) of luciferase; format: physicochemical, Photinus pyralis; details: FIG. 6-8; 10 μg/ml enzyme kept at 0° C., 25° C. and 37° C.
Experimental: Both purified wild type luciferase and CNBLuc03-06 luciferase (SEQ ID NO: 4) were diluted to 10 μg/ml and aliquoted in three micro-centrifuge tubes for these storage stability studies conducted at different temperatures. The tubes containing wild type luciferase and CNBluc03-06 luciferase (SEQ ID NO: 4) were incubated at three different temperatures, 0° C. (FIG. 6), 25° C. (FIG. 7), and 37° C. (FIG. 8) over time. The assay contained 40 mM Tris-Acetate at pH 7.8, 1 mM MgSO4, 0.1 mM EDTA, 500 μM D-Luciferin, 1 mM ATP, 0% ethanol and 33 mM DTT. The light output was measured every 30 minutes after two initial measurements at time 0 and 10 minutes. For each measurement all the samples were diluted to 2 μg/ml so that 10 μl of each sample could be added to give 20 ng of purified enzyme in each reaction.

[7] = Stability of CNBLuc03-06 luciferase activity in the presence of HPV chemicals; format: biochemical, Photinus pyralis
Experimental: as §1
This effect was confirmed by repeated experiments. With 20 ng purified CNBLuc03-06 luciferase (SEQ ID NO: 4) and in the presence of 2.5% ethanol, 1 mM DTT and 86 mM chloroform an activation of approximately 50% was measured, compared with the absence of chloroform.
The capacity of a variety HPV chemicals to inhibit or activate both wild type luciferase and CNBLuc03-06 luciferase (SEQ ID NO: 4) activity compared to controls without HPV chemicals was tested. Higher concentrations of chloroform (172 mM), methylene chloride (318 mM) or toluene (2.7 mM) were used. The basic assay contained 20ng of purified CNBLuc03-06, 1 mM DTT and 2.5% ethanol. CNBLuc03-06 luciferase (SEQ ID NO: 4) was exposed to each chemical for less than 5 minutes before measuring the light output.

B1: CNBLuc03-06: modified Photinus pyralis luciferase: serine to threonine at 239, aspartic acid to tyrosine at 357, alanine to threonine at 532 (protein, listed as Photinus pyralis)
chain: MEDAKNIKKGPAPFYPLEDGTAGEQLHKAMKRYALVPGTIAFTDAHIEVNITYAEYFEMSVRLAEAMKRYGLNTNHRIVVCSENSLQFFMPVLGALFIGVAVAPANDIYNERELLNSMNISQPTVVFVSKKGLQKILNVQKKLPIIQKIIIMDSKTDYQGFQSMYTFVTSHLPPGFNEYDFVPESFDRDKTIALIMNSSGSTGLPKGVALPHRTACVRFSHARDPIFGNQIIPDTAILTVVPFHHGFGMFTTLGYLICGFAVVLMYRFEEELFLRSLQDYKIQSALLVPTLFSFFAKSTLIDKYDLSNLHEIASGGAPLSKEVGEAVAKRFHLPGIRQGYGLTETTSAILITPEGDYKPGAVGKVVPFFEAKVVDLDTGKTLGVNQRGELCVRGPMIMSGYVNNPEATNALIDKDGWLHSGDIAYWDEDEHFFIVDRLKSLIKYKGYQVAPAELESILLQHPNIFDAGVAGLPDDDAGELPAAVVVLEHGKTMTEKEIVDYVASQVTTAKKFRGGVVFVDEVPKGLTGKLDTRKIREILIKAKKGGKSKL
[1]; FIG. 9, 20 ng enzyme, 33 mM DTT, 1 mM MgATP, 500 μM D-Luciferin
  optimum pH: 9
[1]; up to pH 11
  activity at elevated pH: high activity at elevated pH (up to pH 11)
[2]
  specific activity (highest light output): 9.6±0.4×10^9 RLU/mg enzyme/sec
[3]
  effect of SDS on luciferase activity: inhibited luciferase activity significantly; also recorded: retained much more activity at all concentrations of SDS compared to wild type luciferase
[4]
  inhibition of luciferase activity in the presence of chloroform relative to a control without chloroform: not only resistant to, but also had the capacity to be activated by chloroform
[5]
  effect of Triton X-100 on luciferase activity: activated by the nonionic detergent, Triton X-100, up to final concentration of 1.25%; also recorded: maintained activities above the control at all concentrations of Triton X-100
[6]
  activity retained on incubation over time: retained more activity than wild type luciferase
[7]; 20 ng purified enzyme, 2.5% ethanol, 1 mM DTT, 86 mM chloroform
  activation compared with the absence of chloroform: approximately 50%
[7]; FIG. 3, chloroform 172 mM, 20 ng purified enzyme, 1 mM DTT, 2.5% ethanol
  activation compared to controls, chloroform: approximately 60%
[7]; FIG. 3, methylene chloride 318 mM, 20 ng purified enzyme, 1 mM DTT, 2.5% ethanol
  activation compared to controls, methylene chloride: approximately 80%
[7]; FIG. 3, toluene 2.7 mM, 20 ng purified enzyme, 1 mM DTT, 2.5% ethanol
  activation compared to controls, toluene: about 20%
[7]; cell lysates, 5% ethanol, 33 mM DTT, 0.8% chloroform
  activation compared with the absence of chloroform: about 30%
